From PMC7683652 (Nature Communications, 2020)

Target: the molecule itself
Experiment: SEC; size exclusion chromatography of the truncated TDP-43 proteins against molecular weight standards (Supplementary Fig. 3a); conditions not shown

B1: TDP-43 N-terminal region (aa 1-100) (domain or fragment, UniProt Q13148 1-100, looked up)
chain: MSEYIRVTEDENDEPIEIPSEDDGTVLLSTVTAQFPGACGLRYRNPVSQCMRGVRLVEGILHAPDAGWGNLVYVVNYPKDNKRKMDETDASSAVKVKRAV
notes: the methods say aa; 1-101; calculated 12.5 kDa; C-terminal limit is printed as 100 (results, legend) and as 101 (methods); also called N-terminal TDP-43; source: E. coli M15 (pQE30), purified (Ni-NTA)
  stoichiometry N: 2
